Data reported in patent US20220411514A1, “ANTI-GAL3 ANTIBODIES AND METHODS OF USE FOR INSULIN RESISTANCE” (TrueBinding, Inc., priority 2021, published 2022).
Where a chain is given by its changes, count along the chain named.

Key:
hGal3 peptide = target: T1, hGal3 peptide (Homo sapiens, UniProt P17931); assay: Gal3 peptide library binding ELISA (Example 2)
T1 construct: a library of 24 amino acid peptides representing portions of Gal3
Protocol: To identify the epitopes to which Gal3 antibodies with and without Gal3-INSR blocking activity bound, a library of 24 amino acid peptides representing portions of Gal3, depicted in FIG. 18, was produced and the ability of each peptide to bind Gal3 antibodies was evaluated by ELISA. At least 2 μg/ml of hGal3 peptide in 50 μl of PBS or 0.1 μg/ml of full-length human Gal3 protein (GenScript) and human Galectin-3 protein (Acro Biosystems, GA3-H5129) were diluted in PBS (Corning, 21-030-CM) to concentrations of at least 2 μg/ml or 0.1 μg/ml, respectively, and added to the wells of a 96-well ELISA plate (Thermo Fisher, 44-2404-21). After incubating the plate at 4° C. overnight, the plate was washed three times with PBST (PBS with 0.05% Tween 20 [VWR, 0777]). The plate was then blocked for an hour with 2% BSA (EMD Millipore, 126609) in PBST at room temperature with gentle rocking. Thereafter, the 2% BSA in PBST was discarded and human Galectin-3 hybridoma supernatants or antibodies were diluted in 2% BSA in PBST to concentrations of at least 0.1 μg/ml and added to the wells. The plate was incubated for an hour at room temperature with gentle rocking and then washed three times with PBST. Afterwards, Goat Anti-Mouse IgG-HRP (Jackson ImmunoResearch, 115-036-1461) or Goat Anti-Rat IgG HRP (Abcam, ab205720) diluted in 2% BSA in PBST (1:4000) were added to the wells. The plate was incubated for 30 minutes to 1 hour at room temperature with gentle rocking and then washed three times with PBST. TMB substrate (Thermo Scientific, 34029) was then added to each well. The reaction was stopped with 1M HCl (JT Baker, 5620-02) and read using a plate reader (Molecular Devices) at absorbance of 450 nm.

Human Gal3 peptides [1] = target: T2, Human Gal3 peptides (Homo sapiens, UniProt P17931); assay: Gal3 peptide binding ELISA (Example 8); conditions: antibody 5 μg/mL
T2 construct: purchased LifeTein custom order
Procedure, shortened: (§1)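 Plates coated overnight at 4 °C with human Gal3 peptides (at least 100 μg/mL) or Gal3 protein (1 μg/mL) in PBS, then blocked with 2% BSA/PBST. Antibodies as hIgG4 (S228P) at 5 μg/mL, 1 h at room temperature. Detection by HRP anti-human IgG F(ab′)2 and TMB, absorbance at 450 nm.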

human Gal3 = target: T3, human Gal3 (Homo sapiens, UniProt P17931); assay: Epitope binning, sandwich format, SPR Carterra LSA (Example 8); format: binding
T3 construct: 6xHis (linker-spaced) (C); purchased AcroBio (Acro Biosystems) GA3-H5129
T3 sequence (P17931 whole entry): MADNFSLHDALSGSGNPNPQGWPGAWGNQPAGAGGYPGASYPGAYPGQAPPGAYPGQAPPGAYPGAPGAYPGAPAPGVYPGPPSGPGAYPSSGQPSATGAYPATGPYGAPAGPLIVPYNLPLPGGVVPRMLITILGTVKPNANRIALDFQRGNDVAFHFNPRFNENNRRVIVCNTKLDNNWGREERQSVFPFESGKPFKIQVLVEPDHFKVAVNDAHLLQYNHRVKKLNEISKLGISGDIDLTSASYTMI
Procedure, shortened: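 Sandwich epitope binning by SPR. Antibodies amine-coupled at 10 μg/ml (pH 5.0) to an HC200M chip array. Per cycle, human Gal3 injected, then one secondary antibody from a 150-antibody panel. Regeneration with 10 mM glycine pH 2.0.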

Human Gal3 peptides [2] = assay: Gal3 peptide binding ELISA (Example 8); conditions: antibody 5 μg/mL
Procedure, shortened: as §1

B1: 19B5.2E6: anti-Gal3 antibody (antibody)
heavy: QIQLVQSGPELKKPGETVKISCKASGYTFTTYAMSWVKQAPGKGLKWMGWINTYSGVPTYADDLKGRFAFSLETSASTAYLQINNLKNEDTATYFCARGPYAMDYWGQGTSVTVSSAKTTPPSVYPLAPVCGDTTGSSVTLGCLVKGYFPEPVTLTWNSGSLSSGVHTFPAVLQSDLYTLSSSVTVTSSTWPSQSITCNVAHPASSTKVDKKIEPRGPTIKPCPPCKCPAPNAAGGPSVFIFPPKIKDVLMISLSPIVTCVVVDVSEDDPDVQISWFVNNVEVHTAQTQTHREDYNSTLRVVSALPIQHQDWMSGKEFKCKVNNKDLGAPIERTISKPKGSVRAPQVYVLPPPEEEMTKKQVTLTCMVTDFMPEDIYVEWTNNGKTELNYKNTEPVLDSDGSYFMYSKLRVEKKNWVERNSYSCSVVHEGLHNHHTTKSFSRTPGK
light: DIQMTQTTSSLSASLGDRVTISCSASQGINNYLNWYQQKPDGTVKLLIYYASSLHSGVPSRFSGSGSGTDYSLTISNLEPEDIATYYCQQYSQVPYTFGSGTKLEIKRADVAPTVSIFPPSSEQLTSGGASVVCFLNNFYPKDINVKWKIDGSERQNGVLNSWTDQDSKDSTYSMSSTLTLTKDEYERHNSYTCEATHKTSTSPIVKSFNRNEC
modifications: 19B5.2E6 heavy chain peptide sequence; 19B5.2E6/23H9.2E4 light chain peptide sequence
notes: anti-Gal3 antibody
- binding to Gal3 peptide 1 (amino acids 1-20, SEQ ID NO: 3) (hGal3 peptide): bound
- binding to Gal3 peptide 7 (amino acids 61-80, SEQ ID NO: 9) (hGal3 peptide): bound
- binding to Gal3 peptide 1 (SEQ ID NO: 3) (Human Gal3 peptides [1]): bound
- binding to Gal3 peptide 7 (SEQ ID NO: 9) (Human Gal3 peptides [1]): bound

B2: 23H9.2E4: anti-Gal3 antibody (antibody)
heavy: B1 heavy
light: B1 light
modifications: 23H9.2E4 heavy chain peptide sequence; 19B5.2E6/23H9.2E4 light chain peptide sequence
notes: anti-Gal3 antibody
- binding to Gal3 peptide 1 (amino acids 1-20, SEQ ID NO: 3) (hGal3 peptide): bound
- binding to Gal3 peptide 7 (amino acids 61-80, SEQ ID NO: 9) (hGal3 peptide): bound
- binding to Gal3 peptide 1 (SEQ ID NO: 3) (Human Gal3 peptides [1]): bound
- binding to Gal3 peptide 6 (SEQ ID NO: 8) (Human Gal3 peptides [1]): bound
- binding to Gal3 peptide 7 (SEQ ID NO: 9) (Human Gal3 peptides [1]): bound
- binding to Gal3 peptide 8 (SEQ ID NO: 10) (Human Gal3 peptides [1]): bound

B3: 849.4F12: anti-Gal3 antibody (antibody, V domains shown)
VH: QVQLKESGPGILQPSQTLSLTCSFSGFSLSTFGMGVGWIRQPSGKGLEWLAHIWWDDDKHYNPALKSRLTISKDTSKNQVFLRIANVDTADNATYYCARIDYGDYVGFAYWGQGTLVTVSA
VL: DILLTQSPSSMSVSLGDTVSITCHASQGINSNIGWLQQKPGKSFKGLIYHGTNLEDGVPSRFSGSGSGADYSLTISSLESEDFADYYCVQYDQFPWTFGGGTKLEIK
- binding to hGAL3 when immobilized on HC200M chip (human Gal3): not bind
- binding to any of the tested Gal3 peptides (Human Gal3 peptides [2]): not found to bind

B4: 7D8.2D8: anti-Gal3 antibody (antibody)
heavy: EVQLVESGGGLVKPGGSLKLSCAASGFTFSSYAMSWVRQTPEKRLEWVATISDGGIYTYYPDNVKGRFTISRDNAKNNLFLQMSHLKSEDTAMYYCVRDGGYWGQGTTLTVSSAKTTPPSVYPLAPVCGDTTGSSVTLGCLVKGYFPEPVTLTWNSGSLSSGVHTFPAVLQSDLYTLSSSVTVTSSTWPSQSITCNVAHPASSTKVDKKIEPRGPTIKPCPPCKCPAPNAAGGPSVFIFPPKIKDVLMISLSPIVTCVVVDVSEDDPDVQISWFVNNVEVHTAQTQTHREDYNSTLRVVSALPIQHQDWMSGKEFKCKVNNKDLGAPIERTISKPKGSVRAPQVYVLPPPEEEMTKKQVTLTCMVTDFMPEDIYVEWTNNGKTELNYKNTEPVLDSDGSYFMYSKLRVEKKNWVERNSYSCSVVHEGLHNHHTTKSFSRTPGK
light: DVLMTQTPLSLPVSLGDQASISCRSSQSIVHSNGNTYLEWYLQKPGQSPKLLIYKVSNRFSGVPDRFSGSGSGTDFTLKISRVEAEDLGVYYCFQGSHVPLTFGAGTKLELKRADVAPTVSIFPPSSEQLTSGGASVVCFLNNFYPKDINVKWKIDGSERQNGVLNSWTDQDSKDSTYSMSSTLTLTKDEYERHNSYTCEATHKTSTSPIVKSFNRNEC
modifications: 7D8.2D8 heavy chain peptide sequence; 7D8.2D8 light chain peptide sequence
notes: anti-Gal3 antibody
- binding to Gal3 peptide 7 (amino acids 61-80, SEQ ID NO: 9) (hGal3 peptide): bound
- binding to Gal3 peptide 2 (SEQ ID NO: 4) (Human Gal3 peptides [1]): bound
- binding to Gal3 peptide 3 (SEQ ID NO: 5) (Human Gal3 peptides [1]): bound
- binding to Gal3 peptide 17 (SEQ ID NO: 19) (Human Gal3 peptides [1]): bound

B5: 15F10.2D6: anti-Gal3 antibody (antibody)
heavy: B4 heavy with T28A, I56V, P61T, N63H, K76E, N77D, F80Y
light: B4 light with S32N, A105G
modifications: 15F10.2D6 heavy chain peptide sequence; 15F10.2D6 light chain peptide sequence
notes: anti-Gal3 antibody
- binding to Gal3 peptide 7 (amino acids 61-80, SEQ ID NO: 9) (hGal3 peptide): bound
- binding to Gal3 peptide 2 (SEQ ID NO: 4) (Human Gal3 peptides [1]): bound
- binding to Gal3 peptide 3 (SEQ ID NO: 5) (Human Gal3 peptides [1]): bound
- binding to Gal3 peptide 4 (SEQ ID NO: 6) (Human Gal3 peptides [1]): bound

B6: 2D10.2B2: anti-Gal3 antibody (antibody)
heavy: QVQLQQSGPELVKPGASVKISCKASGYTFTDYYINWVKQRPGQGLEWIGWIYPGSNDTKYNEKFKGKATLTVDTSSSTAYMQLGSLTSEDSAVYFCANYFGCSGWFFDVWGTGTTVTVSSAKTTPPSVYPLAPVCGDTTGSSVTLGCLVKGYFPEPVTLTWNSGSLSSGVHTFPAVLQSDLYTLSSSVTVTSSTWPSQSITCNVAHPASSTKVDKKIEPRGPTIKPCPPCKCPAPNAAGGPSVFIFPPKIKDVLMISLSPIVTCVVVDVSEDDPDVQISWFVNNVEVHTAQTQTHREDYNSTLRVVSALPIQHQDWMSGKEFKCKVNNKDLGAPIERTISKPKGSVRAPQVYVLPPPEEEMTKKQVTLTCMVTDFMPEDIYVEWTNNGKTELNYKNTEPVLDSDGSYFMYSKLRVEKKNWVERNSYSCSVVHEGLHNHHTTKSFSRTPGK
light: DIVMTQAAFSNPVTLGTSASISCRSSKSLLHSDGITYLYWYLQRPGQSPQLLIYRMSNLASGVPDRFSGSGSGTDFTLRISRVEAEDVGVYYCAQMIEFPLTFGAGTILELKRADVAPTVSIFPPSSEQLTSGGASVVCFLNNFYPKDINVKWKIDGSERQNGVLNSWTDQDSKDSTYSMSSTLTLTKDEYERHNSYTCEATHKTSTSPIVKSFNRNEC
modifications: 2D10.2B2 heavy chain peptide sequence; 2D10.2B2 light chain peptide sequence
notes: anti-Gal3 antibody
- binding to Gal3 peptide 6 (amino acids 51-70, SEQ ID NO: 8) (hGal3 peptide): bound
- binding to Gal3 peptide 6 (SEQ ID NO: 8) (Human Gal3 peptides [1]): bound

B7: 847.11D6: anti-Gal3 antibody (antibody, V domains shown)
VH: EVKLQQSGPELMKPGTSMKISCKASGYSFTGYTMNWVKQSHGKNLEWIGLINPYNGGTNYNQKFRGKATLSVDKSSNTAYMELLSLTSEDSAVYYCARKDDYYGSSPYALDYWGQGTSVTVSS
VL: DIVMTQSPASLAVSLGQRATISCRASESVENHVNSFMHWFQQKPGQPPKLLIYRASNLQSGIPARFSGSGSRTDFTLTINPVEADDVATYYCQQNNEVPYTFGGGTKLEIK
- epitope bin (mutual competitive binding for Gal3) (human Gal3): CRD
- binding to any of the tested Gal3 peptides (Human Gal3 peptides [2]): not found to bind

B8: 20D11.2C6: anti-Gal3 antibody (antibody)
heavy: EVQLQQSGPELVKPGASVKISCKASGYTFTDFYINWVKQSHGKSLEWIGDINPKNGGINYNPKFKIKATLTVDKSSSTSYMDLRGLTSEDSAVYYCTSGYGFPYWGQGTLVTVSAAKTTPPSVYPLAPVCGDTTGSSVTLGCLVKGYFPEPVTLTWNSGSLSSGVHTFPAVLQSDLYTLSSSVTVTSSTWPSQSITCNVAHPASSTKVDKKIEPRGPTIKPCPPCKCPAPNAAGGPSVFIFPPKIKDVLMISLSPIVTCVVVDVSEDDPDVQISWFVNNVEVHTAQTQTHREDYNSTLRVVSALPIQHQDWMSGKEFKCKVNNKDLGAPIERTISKPKGSVRAPQVYVLPPPEEEMTKKQVTLTCMVTDFMPEDIYVEWTNNGKTELNYKNTEPVLDSDGSYFMYSKLRVEKKNWVERNSYSCSVVHEGLHNHHTTKSFSRTPGK
light: DIQMNQSPSSLSASLGDTITITCRASQNIYIWLSWYQQKPGNIPKLLIYKASNLHTGVPSRFSGSGSGTDFTLTISTLQPEDIATYFCLQGQSYPLTFGAGTKLEMKRADVAPTVSIFPPSSEQLTSGGASVVCFLNNFYPKDINVKWKIDGSERQNGVLNSWTDQDSKDSTYSMSSTLTLTKDEYERHNSYTCEATHKTSTSPIVKSFNRNEC
modifications: 20D11.2C6 heavy chain peptide sequence; 20D11.2C6 light chain peptide sequence
notes: anti-Gal3 antibody
- binding to Gal3 peptide 1 (amino acids 1-20, SEQ ID NO: 3) (hGal3 peptide): bound
- binding to Gal3 peptide 7 (amino acids 61-80, SEQ ID NO: 9) (hGal3 peptide): bound
- binding to Gal3 peptide 1 (SEQ ID NO: 3) (Human Gal3 peptides [1]): bound
- binding to Gal3 peptide 7 (SEQ ID NO: 9) (Human Gal3 peptides [1]): bound
- binding to Gal3 peptide 8 (SEQ ID NO: 10) (Human Gal3 peptides [1]): bound
